In test [1] the target is T1, mouse FcγRIII extracellular domain, C-terminal His tag (mouse, UniProt P08508 31-215).
T1 construct: Whole entry named; also called mFcγRIII; mFcgRIII
T1 chain: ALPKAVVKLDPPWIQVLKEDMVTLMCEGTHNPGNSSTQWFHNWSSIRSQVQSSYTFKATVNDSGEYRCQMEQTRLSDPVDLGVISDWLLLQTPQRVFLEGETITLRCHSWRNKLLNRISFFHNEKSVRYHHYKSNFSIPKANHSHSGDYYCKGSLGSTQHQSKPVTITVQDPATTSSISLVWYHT
In words: SPR (Biacore T200); KD of H237-mIgG1/MRAL-k0 / KD of variant. (In general: Surface plasmon resonance follows binding to a sensor surface in real time, without labels.)

Test [2] deals with T2, mouse FcγRII extracellular domain, C-terminal His tag (mouse, UniProt P08101 30-210).
T2 construct: Whole entry named; also called mFcγRII; mFcgRII
T2 sequence: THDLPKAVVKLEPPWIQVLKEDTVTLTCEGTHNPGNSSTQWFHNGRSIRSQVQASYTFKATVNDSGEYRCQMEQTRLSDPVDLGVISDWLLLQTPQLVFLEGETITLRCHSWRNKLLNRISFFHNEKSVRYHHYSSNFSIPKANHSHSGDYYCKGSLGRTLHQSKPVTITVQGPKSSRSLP
The description is as above.

B1: H237-MB571/MRAL-k0 (antibody, mouse IgG1, kappa)
heavy: QVQLQESGPGLVKPSETLSLTCAVSGHSISHDHAWSWVRQPPGEGLEWIGFISYSGITNYNPSLQGRVTISRDNSKNTLYLQMNSLRAEDTAVYYCARSLARTTAMDYWGEGTLVTVSSAKTTPPSVYPLAPGSAAQTNSMVTLGCLVKGYFPEPVTVTWNSGSLSSGVHTFPAVLQSDLYTLSSSVTVPSSTWPSETVTCNVAHPASSTKVDKKIVPRDCGCKPCICTVPEESFVFIFPPKPKDVLTITLTPKVTCVVVDISKDDPEVQFSWFVDDVEVHTAQTQPREEQFNSTFRSVSELPIMHQDWLNGKEFKCRVNSAAFPAPIEKTISKTKGRPKAPQVYTIPPPKEQMAKDKVSLTCMITDFFPEDITVEWQWNGQPAENYKNTQPIMDTDGSYFVYSKLNVQKSNWEAGNTFTCSVLHEGLHNHHTEKSLSHSPGK
light: not shown
notes: copies: 2 + 2
Regarding B1, the “relative mFcγRIII-binding activity (mIgG1 = 1)” value in test [1] was 0.05 fold. Also, the “relative mFcγRII-binding activity (mIgG1 = 1)” value in test [2] worked out at 0.22 fold.

B2: H237-MB572/MRAL-k0 (antibody, mouse IgG1, kappa)
heavy: QVQLQESGPGLVKPSETLSLTCAVSGHSISHDHAWSWVRQPPGEGLEWIGFISYSGITNYNPSLQGRVTISRDNSKNTLYLQMNSLRAEDTAVYYCARSLARTTAMDYWGEGTLVTVSSAKTTPPSVYPLAPGSAAQTNSMVTLGCLVKGYFPEPVTVTWNSGSLSSGVHTFPAVLQSDLYTLSSSVTVPSSTWPSETVTCNVAHPASSTKVDKKIVPRDCGCKPCICTVPEESWVFIFPPKPKDVLTITLTPKVTCVVVDISKDDPEVQFSWFVDDVEVHTAQTQPREEQFNSTFRSVSELPIMHQDWLNGKEFKCRVNSAAFPAPIEKTISKTKGRPKAPQVYTIPPPKEQMAKDKVSLTCMITDFFPEDITVEWQWNGQPAENYKNTQPIMDTDGSYFVYSKLNVQKSNWEAGNTFTCSVLHEGLHNHHTEKSLSHSPGK
light: not shown
notes: copies: 2 + 2
Consider B2, for which the “relative mFcγRIII-binding activity (mIgG1 = 1)” value in test [1] was determined as 0.07 fold. For the same molecule, in test [2], the “relative mFcγRII-binding activity (mIgG1 = 1)” value turned out to be 0.26 fold.

B3: H237-MB579/MRAL-k0 (antibody, mouse IgG1, kappa)
heavy: QVQLQESGPGLVKPSETLSLTCAVSGHSISHDHAWSWVRQPPGEGLEWIGFISYSGITNYNPSLQGRVTISRDNSKNTLYLQMNSLRAEDTAVYYCARSLARTTAMDYWGEGTLVTVSSAKTTPPSVYPLAPGSAAQTNSMVTLGCLVKGYFPEPVTVTWNSGSLSSGVHTFPAVLQSDLYTLSSSVTVPSSTWPSETVTCNVAHPASSTKVDKKIVPRDCGCKPCICTVPEVSWVDIFPPKPKDVLTITLTPKVTCVVVDISKDDPEVQFSWFVDDVEVHTAQTQPREEQFNSTFRSVSELPIMHQDWLNGKEFKCRVNSAAFPAPIEKTISKTKGRPKAPQVYTIPPPKEQMAKDKVSLTCMITDFFPEDITVEWQWNGQPAENYKNTQPIMDTDGSYFVYSKLNVQKSNWEAGNTFTCSVLHEGLHNHHTEKSLSHSPGK
light: not shown
notes: copies: 2 + 2
Regarding B3, in test [1], the “relative mFcγRIII-binding activity (mIgG1 = 1)” value came to 0.34 fold. Moreover, the “relative mFcγRII-binding activity (mIgG1 = 1)” value in test [2] came out at 0.89 fold.

B4: H237-MB576/MRAL-k0 (antibody, mouse IgG1, kappa)
heavy: QVQLQESGPGLVKPSETLSLTCAVSGHSISHDHAWSWVRQPPGEGLEWIGFISYSGITNYNPSLQGRVTISRDNSKNTLYLQMNSLRAEDTAVYYCARSLARTTAMDYWGEGTLVTVSSAKTTPPSVYPLAPGSAAQTNSMVTLGCLVKGYFPEPVTVTWNSGSLSSGVHTFPAVLQSDLYTLSSSVTVPSSTWPSETVTCNVAHPASSTKVDKKIVPRDCGCKPCICTVPEVSFVDIFPPKPKDVLTITLTPKVTCVVVDISKDDPEVQFSWFVDDVEVHTAQTQPREEQFNSTFRSVSELPIMHQDWLNGKEFKCRVNSAAFPAPIEKTISKTKGRPKAPQVYTIPPPKEQMAKDKVSLTCMITDFFPEDITVEWQWNGQPAENYKNTQPIMDTDGSYFVYSKLNVQKSNWEAGNTFTCSVLHEGLHNHHTEKSLSHSPGK
light: not shown
notes: copies: 2 + 2
As to B4, the “relative mFcγRIII-binding activity (mIgG1 = 1)” value in test [1] turned out to be 0.6 fold. The “relative mFcγRII-binding activity (mIgG1 = 1)” value in test [2] was 1.54 fold.

B5: H237-MB575/MRAL-k0 (antibody, mouse IgG1, kappa)
heavy: QVQLQESGPGLVKPSETLSLTCAVSGHSISHDHAWSWVRQPPGEGLEWIGFISYSGITNYNPSLQGRVTISRDNSKNTLYLQMNSLRAEDTAVYYCARSLARTTAMDYWGEGTLVTVSSAKTTPPSVYPLAPGSAAQTNSMVTLGCLVKGYFPEPVTVTWNSGSLSSGVHTFPAVLQSDLYTLSSSVTVPSSTWPSETVTCNVAHPASSTKVDKKIVPRDCGCKPCICTVPEESSVTIFPPKPKDVLTITLTPKVTCVVVDISKDDPEVQFSWFVDDVEVHTAQTQPREEQFNSTFRSVSELPIMHQDWLNGKEFKCRVNSAAFPAPIEKTISKTKGRPKAPQVYTIPPPKEQMAKDKVSLTCMITDFFPEDITVEWQWNGQPAENYKNTQPIMDTDGSYFVYSKLNVQKSNWEAGNTFTCSVLHEGLHNHHTEKSLSHSPGK
light: not shown
notes: copies: 2 + 2
On to B5, for which the “relative mFcγRIII-binding activity (mIgG1 = 1)” value in test [1] is 0.05 fold. Moreover, the “relative mFcγRII-binding activity (mIgG1 = 1)” value in test [2] was found to be 0.08 fold.

B6: H237-MB573/MRAL-k0 (antibody, mouse IgG1, kappa)
heavy: QVQLQESGPGLVKPSETLSLTCAVSGHSISHDHAWSWVRQPPGEGLEWIGFISYSGITNYNPSLQGRVTISRDNSKNTLYLQMNSLRAEDTAVYYCARSLARTTAMDYWGEGTLVTVSSAKTTPPSVYPLAPGSAAQTNSMVTLGCLVKGYFPEPVTVTWNSGSLSSGVHTFPAVLQSDLYTLSSSVTVPSSTWPSETVTCNVAHPASSTKVDKKIVPRDCGCKPCICTVPEESSVDIFPPKPKDVLTITLTPKVTCVVVDISKDDPEVQFSWFVDDVEVHTAQTQPREEQFNSTFRSVSELPIMHQDWLNGKEFKCRVNSAAFPAPIEKTISKTKGRPKAPQVYTIPPPKEQMAKDKVSLTCMITDFFPEDITVEWQWNGQPAENYKNTQPIMDTDGSYFVYSKLNVQKSNWEAGNTFTCSVLHEGLHNHHTEKSLSHSPGK
light: not shown
notes: copies: 2 + 2
Regarding B6, the “relative mFcγRIII-binding activity (mIgG1 = 1)” value in test [1] was 0.06 fold. Also, in test [2], the “relative mFcγRII-binding activity (mIgG1 = 1)” value stood at 0.43 fold.

B7: H237-MB574/MRAL-k0 (antibody, mouse IgG1, kappa)
heavy: QVQLQESGPGLVKPSETLSLTCAVSGHSISHDHAWSWVRQPPGEGLEWIGFISYSGITNYNPSLQGRVTISRDNSKNTLYLQMNSLRAEDTAVYYCARSLARTTAMDYWGEGTLVTVSSAKTTPPSVYPLAPGSAAQTNSMVTLGCLVKGYFPEPVTVTWNSGSLSSGVHTFPAVLQSDLYTLSSSVTVPSSTWPSETVTCNVAHPASSTKVDKKIVPRDCGCKPCICTVPEESSVEIFPPKPKDVLTITLTPKVTCVVVDISKDDPEVQFSWFVDDVEVHTAQTQPREEQFNSTFRSVSELPIMHQDWLNGKEFKCRVNSAAFPAPIEKTISKTKGRPKAPQVYTIPPPKEQMAKDKVSLTCMITDFFPEDITVEWQWNGQPAENYKNTQPIMDTDGSYFVYSKLNVQKSNWEAGNTFTCSVLHEGLHNHHTEKSLSHSPGK
light: not shown
notes: copies: 2 + 2
In the case of B7, the “relative mFcγRIII-binding activity (mIgG1 = 1)” value in test [1] amounted to 0.1 fold. In addition, the “relative mFcγRII-binding activity (mIgG1 = 1)” value in test [2] came out at 0.27 fold.

B8: H237-MB577/MRAL-k0 (antibody, mouse IgG1, kappa)
heavy: QVQLQESGPGLVKPSETLSLTCAVSGHSISHDHAWSWVRQPPGEGLEWIGFISYSGITNYNPSLQGRVTISRDNSKNTLYLQMNSLRAEDTAVYYCARSLARTTAMDYWGEGTLVTVSSAKTTPPSVYPLAPGSAAQTNSMVTLGCLVKGYFPEPVTVTWNSGSLSSGVHTFPAVLQSDLYTLSSSVTVPSSTWPSETVTCNVAHPASSTKVDKKIVPRDCGCKPCICTVPEVSFVEIFPPKPKDVLTITLTPKVTCVVVDISKDDPEVQFSWFVDDVEVHTAQTQPREEQFNSTFRSVSELPIMHQDWLNGKEFKCRVNSAAFPAPIEKTISKTKGRPKAPQVYTIPPPKEQMAKDKVSLTCMITDFFPEDITVEWQWNGQPAENYKNTQPIMDTDGSYFVYSKLNVQKSNWEAGNTFTCSVLHEGLHNHHTEKSLSHSPGK
light: not shown
notes: copies: 2 + 2
Turning to B8, the “relative mFcγRIII-binding activity (mIgG1 = 1)” value in test [1] was determined as 1.19 fold. In test [2], the “relative mFcγRII-binding activity (mIgG1 = 1)” value was determined as 2.51 fold.

B9: H237-MB578/MRAL-k0 (antibody, mouse IgG1, kappa)
heavy: QVQLQESGPGLVKPSETLSLTCAVSGHSISHDHAWSWVRQPPGEGLEWIGFISYSGITNYNPSLQGRVTISRDNSKNTLYLQMNSLRAEDTAVYYCARSLARTTAMDYWGEGTLVTVSSAKTTPPSVYPLAPGSAAQTNSMVTLGCLVKGYFPEPVTVTWNSGSLSSGVHTFPAVLQSDLYTLSSSVTVPSSTWPSETVTCNVAHPASSTKVDKKIVPRDCGCKPCICTVPEVSFVTIFPPKPKDVLTITLTPKVTCVVVDISKDDPEVQFSWFVDDVEVHTAQTQPREEQFNSTFRSVSELPIMHQDWLNGKEFKCRVNSAAFPAPIEKTISKTKGRPKAPQVYTIPPPKEQMAKDKVSLTCMITDFFPEDITVEWQWNGQPAENYKNTQPIMDTDGSYFVYSKLNVQKSNWEAGNTFTCSVLHEGLHNHHTEKSLSHSPGK
light: not shown
notes: copies: 2 + 2
In the case of B9, the “relative mFcγRIII-binding activity (mIgG1 = 1)” value in test [1] was determined as 0.25 fold. Moreover, in test [2], the “relative mFcγRII-binding activity (mIgG1 = 1)” value was 0.39 fold.

B10: H237-MB580/MRAL-k0 (antibody, mouse IgG1, kappa)
heavy: QVQLQESGPGLVKPSETLSLTCAVSGHSISHDHAWSWVRQPPGEGLEWIGFISYSGITNYNPSLQGRVTISRDNSKNTLYLQMNSLRAEDTAVYYCARSLARTTAMDYWGEGTLVTVSSAKTTPPSVYPLAPGSAAQTNSMVTLGCLVKGYFPEPVTVTWNSGSLSSGVHTFPAVLQSDLYTLSSSVTVPSSTWPSETVTCNVAHPASSTKVDKKIVPRDCGCKPCICTVPEVSWVEIFPPKPKDVLTITLTPKVTCVVVDISKDDPEVQFSWFVDDVEVHTAQTQPREEQFNSTFRSVSELPIMHQDWLNGKEFKCRVNSAAFPAPIEKTISKTKGRPKAPQVYTIPPPKEQMAKDKVSLTCMITDFFPEDITVEWQWNGQPAENYKNTQPIMDTDGSYFVYSKLNVQKSNWEAGNTFTCSVLHEGLHNHHTEKSLSHSPGK
light: not shown
notes: copies: 2 + 2
For the molecule B10, the “relative mFcγRIII-binding activity (mIgG1 = 1)” value in test [1] amounted to 0.61 fold. In test [2], the “relative mFcγRII-binding activity (mIgG1 = 1)” value was 1.38 fold.

These data come from patent US20150203577A1 (Chugai, published 2015).
